Biological target: the molecule itself
Assay: SEC-MALS

B1: TFG PB1 domain (amino acids 1-96), wild type (domain or fragment, human, UniProt Q92734 1-96, looked up)
chain: MNGQLDLSGKLIIKAQLGEDIRRIPIHNEDITYDELVLMMQRVFRGKLLSNDEVTIKYKDEDGDLITIFDSSDLSFAIQCSRILKLTLFVNGQPRP
Question: How did the “stoichiometry N” value turn out when B1 was run?
Answer: 8

Source: article doi:10.1101/2024.11.05.621662 (bioRxiv, 2024)
